T1: GST-CDF2 (Arabidopsis, UniProt Q93ZL5 1-457)
T1 construct: cycling DOF factor 2 (CDF2), Arabidopsis
T1 sequence (looked up): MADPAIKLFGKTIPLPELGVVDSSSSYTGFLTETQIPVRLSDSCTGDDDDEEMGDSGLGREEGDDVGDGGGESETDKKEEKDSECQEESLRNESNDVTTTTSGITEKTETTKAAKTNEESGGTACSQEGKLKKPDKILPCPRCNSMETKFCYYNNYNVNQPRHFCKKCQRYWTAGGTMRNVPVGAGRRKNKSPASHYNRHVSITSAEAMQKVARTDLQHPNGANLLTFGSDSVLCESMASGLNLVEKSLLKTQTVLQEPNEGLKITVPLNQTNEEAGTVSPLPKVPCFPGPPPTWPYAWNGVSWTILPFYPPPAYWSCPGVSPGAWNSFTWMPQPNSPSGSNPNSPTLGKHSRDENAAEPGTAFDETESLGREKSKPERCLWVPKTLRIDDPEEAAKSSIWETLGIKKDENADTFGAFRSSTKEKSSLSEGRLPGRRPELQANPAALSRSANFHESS

T2: MBP-CDF2 (Arabidopsis, UniProt Q93ZL5 1-457)
T2 construct: cycling DOF factor 2 (CDF2), Arabidopsis; source: E. coli BL21 (DE3), purified (New England Biolabs protocol)
T2 sequence (looked up): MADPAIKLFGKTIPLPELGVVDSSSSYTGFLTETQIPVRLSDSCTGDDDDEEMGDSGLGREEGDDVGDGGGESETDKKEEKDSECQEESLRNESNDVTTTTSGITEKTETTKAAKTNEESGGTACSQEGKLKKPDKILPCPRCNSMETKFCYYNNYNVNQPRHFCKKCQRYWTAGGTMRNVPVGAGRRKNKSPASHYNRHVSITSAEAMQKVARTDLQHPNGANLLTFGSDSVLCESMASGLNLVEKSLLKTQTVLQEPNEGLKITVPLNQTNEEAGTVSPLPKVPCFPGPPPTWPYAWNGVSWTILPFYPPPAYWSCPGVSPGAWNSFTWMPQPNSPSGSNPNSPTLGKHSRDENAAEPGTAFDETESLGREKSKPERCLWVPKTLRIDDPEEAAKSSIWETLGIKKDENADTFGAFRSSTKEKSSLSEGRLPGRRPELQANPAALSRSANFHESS


Experiments:
GST-CDF2 = biological target: T1, GST-CDF2; test: pull-down; GST pull-down: GST-CDF2 (or GST) on glutathione beads, MBP-DCL1-RBD added; 40 mM HEPES-KOH pH 7.5, 10 mM KCl, 3 mM MgCl2, 0.4 M sucrose, 1 mM EDTA, 1 mM DTT, 0.2% Triton X-100; 4 C, 1 h; immunoblot; details: both partners purified
MBP-CDF2 = biological target: T2, MBP-CDF2; test: pull-down; MBP pull-down: MBP-CDF2 (or MBP) on amylose resin, GST-DCL1-RBD added; 40 mM HEPES-KOH pH 7.5, 10 mM KCl, 3 mM MgCl2, 0.4 M sucrose, 1 mM EDTA, 1 mM DTT, 0.2% Triton X-100; 4 C, 1 h; immunoblot; details: both partners purified

Binder	binding result (GST-CDF2)	binding result (MBP-CDF2)
MBP-DCL1-RBD (domain or fragment, Arabidopsis, UniProt Q9SP32 1733-1909, looked up, Dicer-like 1 (DCL1), Arabidopsis, the two C-terminal dsRBDs (DCL1-RBD, defined as aa 1733-1910); The limits are those printed where the name DCL1-RBD is defined; the methods of the pull-down give none; source: E. coli BL21 (DE3), purified (New England Biolabs protocol)) HPVRELQERCQQQAEGLEYKASRSGNTATVEVFIDGVQVGVAQNPQKKMAQKLAARNALAALKEKEIAESKEKHINNGNAGEDQGENENGNKKNGHQPFTRQTLNDICLRKNWPMPSYRCVKEGGPAHAKRFTFGVRVNTSDRGWTDECIGEPMPSVKKAKDSAAVLLLELLNKTFS	binds	–
GST-DCL1-RBD (domain or fragment, Arabidopsis, UniProt Q9SP32 1733-1909, looked up, Dicer-like 1 (DCL1), Arabidopsis, the two C-terminal dsRBDs (DCL1-RBD, defined as aa 1733-1910); The limits are those printed where the name DCL1-RBD is defined; the methods of the pull-down give none) HPVRELQERCQQQAEGLEYKASRSGNTATVEVFIDGVQVGVAQNPQKKMAQKLAARNALAALKEKEIAESKEKHINNGNAGEDQGENENGNKKNGHQPFTRQTLNDICLRKNWPMPSYRCVKEGGPAHAKRFTFGVRVNTSDRGWTDECIGEPMPSVKKAKDSAAVLLLELLNKTFS	–	binds

— PMC4608766, “The Roles of Arabidopsis CDF2 in Transcriptional and Posttranscriptional Regulation of Primary MicroRNAs” (PLoS Genetics, 2015)
